T1: human FcγR2B (recombinant, extracellular domain only) (human, UniProt P31994 43-217)
T1 construct: extracellular domain; also called FcyR2B; FcgR2B
T1 sequence (looked up): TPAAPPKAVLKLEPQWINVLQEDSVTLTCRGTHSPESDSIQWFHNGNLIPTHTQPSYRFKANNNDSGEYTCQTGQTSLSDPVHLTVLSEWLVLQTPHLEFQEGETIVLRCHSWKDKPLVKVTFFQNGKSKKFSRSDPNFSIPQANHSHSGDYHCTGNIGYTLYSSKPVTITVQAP

T2: human FcγR2A 131R allotype (recombinant, extracellular domain only) (human, UniProt P12318 34-217)
T2 construct: extracellular domain; 131R allotype; Position 131 is the customary mature-protein numbering; also called FcyR2A (131R)
T2 sequence (looked up): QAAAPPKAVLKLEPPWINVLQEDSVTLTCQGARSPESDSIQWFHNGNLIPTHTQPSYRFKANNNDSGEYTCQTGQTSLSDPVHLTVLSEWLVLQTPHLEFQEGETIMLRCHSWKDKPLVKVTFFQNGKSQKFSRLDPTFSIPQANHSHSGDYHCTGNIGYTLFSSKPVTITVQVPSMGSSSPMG

T3: human FcγR2A 131H allotype (recombinant, extracellular domain only) (human, UniProt P12318 34-217)
T3 construct: extracellular domain; 131H allotype; Position 131 is the customary mature-protein numbering; also called FcyR2A (131H)
T3 sequence (looked up): T2 sequence (looked up) with R134H

B1: humCL19v1 hIgG1 L235N (antibody)
VH: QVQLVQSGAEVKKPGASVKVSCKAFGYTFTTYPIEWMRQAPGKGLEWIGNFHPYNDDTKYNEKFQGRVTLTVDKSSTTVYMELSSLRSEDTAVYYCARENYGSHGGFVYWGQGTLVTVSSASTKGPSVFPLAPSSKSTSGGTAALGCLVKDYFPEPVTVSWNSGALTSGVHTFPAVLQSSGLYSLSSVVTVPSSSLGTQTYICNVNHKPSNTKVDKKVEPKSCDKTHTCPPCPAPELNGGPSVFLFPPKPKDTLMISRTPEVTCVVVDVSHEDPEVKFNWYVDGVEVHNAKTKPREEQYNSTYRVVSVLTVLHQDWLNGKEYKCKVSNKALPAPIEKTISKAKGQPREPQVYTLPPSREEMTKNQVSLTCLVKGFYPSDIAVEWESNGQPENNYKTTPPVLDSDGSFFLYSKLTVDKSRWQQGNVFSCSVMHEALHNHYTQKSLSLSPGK
VL: ENQLTQSPSSLSASVGDRVTITCRASSSVISSYLHWYQQKPGKAPKLLIYSTSNLASGVPSRFSGSGSGTDYTLTISSLQPEDFATYYCQQYNSYPLTFGGGTKLEIKRTVAAPSVFIFPPSDEQLKSGTASVVCLLNNFYPREAKVQWKVDNALQSGNSQESVTEQDSKDSTYSLSSTLTLSKADYEKHKVYACEVTHQGLSSPVTKSFNRGEC
B2: humCL19v1 hIgG1 S239I (antibody)
VH: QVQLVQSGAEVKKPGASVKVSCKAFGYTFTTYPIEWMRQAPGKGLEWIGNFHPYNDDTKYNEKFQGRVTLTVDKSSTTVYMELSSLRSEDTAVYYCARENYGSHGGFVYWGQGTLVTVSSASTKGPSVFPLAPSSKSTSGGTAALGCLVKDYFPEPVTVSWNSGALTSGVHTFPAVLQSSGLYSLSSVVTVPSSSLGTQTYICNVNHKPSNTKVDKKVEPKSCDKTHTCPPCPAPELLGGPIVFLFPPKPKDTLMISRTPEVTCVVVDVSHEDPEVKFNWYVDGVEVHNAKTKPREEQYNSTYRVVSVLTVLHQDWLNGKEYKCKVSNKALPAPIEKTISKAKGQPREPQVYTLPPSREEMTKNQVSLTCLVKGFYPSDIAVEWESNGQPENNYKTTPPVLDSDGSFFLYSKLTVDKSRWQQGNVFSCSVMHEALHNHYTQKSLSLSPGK
VL: B1 VL
B3: humCL19v1 hIgG1 V266M (antibody)
VH: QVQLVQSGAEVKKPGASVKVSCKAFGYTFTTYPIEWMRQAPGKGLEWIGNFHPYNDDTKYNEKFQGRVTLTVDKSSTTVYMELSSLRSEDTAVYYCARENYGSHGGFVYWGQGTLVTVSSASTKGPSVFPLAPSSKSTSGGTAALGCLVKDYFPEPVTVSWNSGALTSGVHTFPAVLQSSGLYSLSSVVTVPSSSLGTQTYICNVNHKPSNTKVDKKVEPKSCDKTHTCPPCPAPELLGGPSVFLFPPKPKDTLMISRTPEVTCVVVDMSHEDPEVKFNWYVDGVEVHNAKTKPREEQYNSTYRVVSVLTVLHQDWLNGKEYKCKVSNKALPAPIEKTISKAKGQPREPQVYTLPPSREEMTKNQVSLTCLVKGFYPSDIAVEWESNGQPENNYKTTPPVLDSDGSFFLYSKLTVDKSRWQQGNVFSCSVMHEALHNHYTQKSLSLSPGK
VL: B1 VL
B4: humCL19v1 hIgG1 S239V (antibody)
VH: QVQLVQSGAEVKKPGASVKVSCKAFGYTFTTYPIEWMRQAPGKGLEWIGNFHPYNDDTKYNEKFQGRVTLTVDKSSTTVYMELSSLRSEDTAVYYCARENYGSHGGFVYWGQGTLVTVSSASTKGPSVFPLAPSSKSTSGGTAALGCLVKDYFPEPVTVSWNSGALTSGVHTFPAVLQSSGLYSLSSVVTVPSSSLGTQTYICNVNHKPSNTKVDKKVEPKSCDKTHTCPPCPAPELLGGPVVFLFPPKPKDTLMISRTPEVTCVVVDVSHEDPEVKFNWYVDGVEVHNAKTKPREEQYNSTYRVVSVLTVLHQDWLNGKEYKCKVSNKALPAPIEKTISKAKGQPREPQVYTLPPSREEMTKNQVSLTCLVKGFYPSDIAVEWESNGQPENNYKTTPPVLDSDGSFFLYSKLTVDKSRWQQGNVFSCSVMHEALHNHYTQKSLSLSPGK
VL: B1 VL
B5: humCL19v1 P238D (antibody, human IgG1, kappa)
heavy: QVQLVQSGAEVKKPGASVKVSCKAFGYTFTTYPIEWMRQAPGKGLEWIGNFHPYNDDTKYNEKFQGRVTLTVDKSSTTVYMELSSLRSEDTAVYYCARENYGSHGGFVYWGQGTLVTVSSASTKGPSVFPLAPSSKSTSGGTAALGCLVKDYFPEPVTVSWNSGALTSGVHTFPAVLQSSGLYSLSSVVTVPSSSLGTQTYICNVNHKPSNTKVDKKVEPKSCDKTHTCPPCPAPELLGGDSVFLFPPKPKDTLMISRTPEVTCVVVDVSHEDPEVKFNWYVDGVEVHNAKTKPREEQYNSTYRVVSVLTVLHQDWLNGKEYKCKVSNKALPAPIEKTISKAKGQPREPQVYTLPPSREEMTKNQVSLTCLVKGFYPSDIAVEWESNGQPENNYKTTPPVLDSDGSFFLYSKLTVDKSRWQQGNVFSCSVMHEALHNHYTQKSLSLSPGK
light: B1 VL
notes: That makes them humCL19v1 P238D; also called hIgG1 P238D; P238D mutated humCL19v1
B6: humCL19v1 hIgG1 Y300N (antibody)
VH: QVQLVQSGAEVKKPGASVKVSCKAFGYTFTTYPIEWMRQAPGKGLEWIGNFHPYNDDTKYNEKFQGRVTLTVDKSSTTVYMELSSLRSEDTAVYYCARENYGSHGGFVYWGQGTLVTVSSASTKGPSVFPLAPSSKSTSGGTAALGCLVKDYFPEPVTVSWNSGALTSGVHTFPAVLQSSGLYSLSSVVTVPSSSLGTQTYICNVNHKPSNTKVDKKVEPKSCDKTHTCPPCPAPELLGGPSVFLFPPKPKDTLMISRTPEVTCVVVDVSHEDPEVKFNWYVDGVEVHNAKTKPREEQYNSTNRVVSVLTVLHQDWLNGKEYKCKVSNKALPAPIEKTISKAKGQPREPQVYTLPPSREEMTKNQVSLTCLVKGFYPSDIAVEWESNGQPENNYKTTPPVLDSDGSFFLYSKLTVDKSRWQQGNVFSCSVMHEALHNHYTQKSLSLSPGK
VL: B1 VL
B7: humCL19v1 hIgG1 L235H (antibody)
VH: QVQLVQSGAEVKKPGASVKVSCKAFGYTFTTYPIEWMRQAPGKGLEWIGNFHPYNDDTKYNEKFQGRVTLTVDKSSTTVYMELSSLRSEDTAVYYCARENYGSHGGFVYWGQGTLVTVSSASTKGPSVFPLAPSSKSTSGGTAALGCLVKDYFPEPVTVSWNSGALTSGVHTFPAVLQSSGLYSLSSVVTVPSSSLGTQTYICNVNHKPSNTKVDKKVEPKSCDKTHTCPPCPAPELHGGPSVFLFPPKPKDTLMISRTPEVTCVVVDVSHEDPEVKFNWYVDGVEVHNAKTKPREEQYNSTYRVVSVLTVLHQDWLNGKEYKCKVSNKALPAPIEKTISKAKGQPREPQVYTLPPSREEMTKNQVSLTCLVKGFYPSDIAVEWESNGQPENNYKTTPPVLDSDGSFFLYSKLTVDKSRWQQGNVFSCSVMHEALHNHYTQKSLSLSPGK
VL: B1 VL
B8: humCL19v3 (antibody, human IgG1, V domains shown)
VH: QVQLVQSGAEVKKPGASVKVSCKAFGYTFTTYPIEWMRQAPGKGLEWIGNFHPYNDDTKYNEKFQGRVTLTVDKSSTTVYMELSSLRSEDTAVYYCARENYGSHGGFVYWGQGTLVTVSS
VL: ENVLTQSPATLSLSPGERATLSCRASSSVISSYLHWYQQKPGQAPRLLIYSTSNLASGIPARFSGSGSGTDYTLTISSLEPEDFAVYYCQQYNSYPLTFGGGTKLEIK
notes: hu-VH1 + hu-VL3; human IgG1 kappa isotype
B9: humCL19v11 (antibody, human IgG1, V domains shown)
VH: QVQLVQSGSELKKPGASVKVSCKAFGYTFTTYPIEWMRQAPGQGLEWIGNFHPYNDDTKYNEGFTGRFVLSVDKSSTTVYLQISSLKAEDTAVYYCARENYGSHGGFVYWGQGTLVTVSS
VL: B8 VL
notes: hu-VH3 + hu-VL3; human IgG1 kappa isotype
B10: humCL19v6 (antibody, human IgG1, V domains shown)
VH: B8 VH with M37V, I48M, L70M, S76T
VL: ENQLTQSPSSLSASVGDRVTITCRASSSVISSYLHWYQQKPGKAPKLLIYSTSNLASGVPSRFSGSGSGTDYTLTISSLQPEDFATYYCQQYRGYPLTFGGGTKLEIK
notes: hu-VH2 + hu-VL2; human IgG1 kappa isotype
B11: humCL19v7 (antibody, human IgG1, V domains shown)
VH: B8 VH with M37V, I48M, L70M, S76T
VL: B8 VL
notes: hu-VH2 + hu-VL3; human IgG1 kappa isotype
B12: humCL19v5 (antibody, human IgG1, V domains shown)
VH: B8 VH with M37V, I48M, L70M, S76T
VL: B10 VL with R93N, G94S
notes: hu-VH2 + hu-VL1; human IgG1 kappa isotype
B13: humCL19v2 (antibody, human IgG1, V domains shown)
VH: B8 VH
VL: B10 VL
notes: hu-VH1 + hu-VL2; human IgG1 kappa isotype
B14: humCL19v8 (antibody, human IgG1, V domains shown)
VH: B8 VH with M37V, I48M, L70M, S76T
VL: B8 VL with L55R, S57T
notes: hu-VH2 + hu-VL4; human IgG1 kappa isotype
B15: humCL19v16 (antibody, human IgG1, V domains shown)
VH: B9 VH with M37V, I48M, L70F, S76V
VL: B8 VL with L55R, S57T
notes: hu-VH4 + hu-VL4; human IgG1 kappa isotype
B16: humCL19v4 (antibody, human IgG1, V domains shown)
VH: B8 VH
VL: B8 VL with L55R, S57T
notes: hu-VH1 + hu-VL4; human IgG1 kappa isotype
B17: humCL19v12 (antibody, human IgG1, V domains shown)
VH: B9 VH
VL: B8 VL with L55R, S57T
notes: hu-VH3 + hu-VL4; human IgG1 kappa isotype
B18: humCL19v9 (antibody, human IgG1, V domains shown)
VH: B9 VH
VL: B10 VL with R93N, G94S
notes: hu-VH3 + hu-VL1; human IgG1 kappa isotype
B19: humCL19v14 (antibody, human IgG1, V domains shown)
VH: B9 VH with M37V, I48M, L70F, S76V
VL: B10 VL
notes: hu-VH4 + hu-VL2; human IgG1 kappa isotype
B20: humCL19v13 (antibody, human IgG1, V domains shown)
VH: B9 VH with M37V, I48M, L70F, S76V
VL: B10 VL with R93N, G94S
notes: hu-VH4 + hu-VL1; human IgG1 kappa isotype
B21: humCL19v10 (antibody, human IgG1, V domains shown)
VH: B9 VH
VL: B10 VL
notes: hu-VH3 + hu-VL2; human IgG1 kappa isotype
B22: Parental (Clone 19 VH and VL) (antibody, V domains shown)
VH: QVQLQQSGAELVKPGASVKMSCKAFGYTFTTYPIEWMKQNHGKSLEWIGNFHPYNDDTKYNEKFKGKAKLTVEKSSTTVYLELSRLTSDDSAVYYCARENYGSHGGFVYWGQGTLVTVSG
VL: ENVLTQSPAIMSASPGEKVTMTCRASSSVISSYLHWYQQKSGASPKLWIYSTSNLASGVPDRFSGSGSGTSYSLTISSVEAEDAATYYCQQYNSYPLTFGAGTKLEIK
notes: The antibodies were captured through anti-human IgG and the variants were made on human IgG1 kappa, so it is probably a chimeric human IgG1 kappa

Residue numbers refer to the chain shown, from its start. Names and notes keep the numbering of the source.

Among the data in US20230312743A1 (MIROBIO, published 2023) are Kd values, retold here.

T5 sequence (B0LAJ3 entry or part of it limits assumed): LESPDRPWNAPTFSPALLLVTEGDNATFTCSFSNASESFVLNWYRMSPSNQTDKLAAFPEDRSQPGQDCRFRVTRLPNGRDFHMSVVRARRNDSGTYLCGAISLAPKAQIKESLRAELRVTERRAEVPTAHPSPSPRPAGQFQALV

The target in one assay is T1, human FcγR2B (recombinant, …). Briefly: SPR (Biacore 8K), 37 C, steady state; antibody captured on immobilised human PD-1 ECD, FcR ECD as analyte. As for the experimental part:
(§1) The interactions were assessed by surface plasmon resonance using a Biacore 8 K with the recombinantly expressed FcRs (extracellular domains only) as analyte. Briefly, recombinant human PD-1 extracellular domain was covalently immobilized to both flow cells of all channels of a CM5 Series S sensor chip using the GE Healthcare Amine coupling kit. […] Steady state affinity analysis was then performed by injecting varying concentrations of FcR and measuring equilibrium binding. Double referencing was used (subtracting the signal in the reference Fc1 and also subtracting the signal from a blank zero concentration injection). KD values were calculated from the Langmuir curves (plotting equilibrium binding against analyte concentration to determine the concentration required for half maximal binding).
On the technique in general: SPR reads the build-up and loss of mass on a sensor chip optically.
As for B1, the Kd came out at 59 nM.

As to B2, the Kd worked out at 3.99 nM.

Consider B3, for which the Kd was found to be 1.54 nM.

For B4, the Kd stood at 3.6 nM.

Consider B5, for which the Kd was found to be 2.79 nM.

Turning to B6, the Kd stood at 6.32 nM.

For the molecule B7, the Kd was 13.6 nM.

The target in another assay is T2, human FcγR2A 131R allotype …. The assay is described as above. The method, then:
as §1
Regarding B1, the Kd came to 12.3 nM.

Consider B2, for which the Kd is 1.65 nM.

For B3, the Kd was determined as 0.58 nM.

Consider B4, for which the Kd came to 1.62 nM.

For B5, the Kd was 17.5 nM.

Turning to B6, the Kd worked out at 2.22 nM.

Consider B7, for which the Kd worked out at 3.67 nM.

The target in a further assay is T3, human FcγR2A 131H allotype …. The assay is described as above. The method, then:
as §1
As to B1, the Kd was determined as 13.5 nM.

For B2, the Kd was found to be 3.38 nM.

For B3, the Kd turned out to be 6.28 nM.

In the case of B4, the Kd stood at 3.13 nM.

As to B5, the Kd came out at 90.3 nM.

With B6, the dissociation constant (Kd) was determined as 2.83 nM.

Consider B7, for which the Kd amounted to 3.96 nM.

The target of the next assay is T4, monomeric soluble human PD-1 extracellular domain (human, UniProt Q15116 25-170).
T4 construct: extracellular domain; also called recombinant human PD-1 extracellular domain
T4 sequence (Q15116 25-170): as the sequence (B0LAJ3 entry or part of it limits assumed) above, with E2D, A10P, L19V, A35T, R75Q, A144T counted along it
The assay can be described thus: SPR (Biacore 8K), 37 C, antibody captured via anti-human IgG, soluble PD-1 ECD as analyte, single cycle kinetics. The method, then:
(§2) Antibody variants were produced consisting of all the potential combinations of humanized VH and VL domains. […] The binding affinity and kinetics of the humanized antibody variants to human or cynomolgus PD-1 were determined by surface plasmon resonance (SPR) using the Biacore 8 K (Cytiva). Human antibody capture kit (Cytiva) was used to coat a Series S CM5 Sensor Chip (Cytiva) with polyclonal anti-human IgG. Anti-PD-1 antibody was then captured onto the biosensor surface and an isotype control antibody captured in the reference channel. Various concentrations of monomeric soluble human PD-1 extracellular domain or soluble cynomolgus macaque PD-1 extracellular domain were then injected over the immobilized antibodies in the buffer 10 mM Hepes, 150 mM NaCl, 0.005% v/v Surfactant P20, pH 7.4 (HBS-P) at 37° C., in a single cycle kinetics analysis. Association and dissociation rates were fitted using BiaEvaluation Software (Cytiva) after reference and blank subtractions, and dissociation constants were calculated.
B8: the Kd was determined as 37.3 nM.

In the case of B9, the equilibrium dissociation constant (Kd) was determined as 52.5 nM.

Turning to B10, the Kd was 2000 nM.

Consider B11, for which the Kd was 64.5 nM.

In the case of B12, the Kd is 57.6 nM.

B13: the Kd was found to be 1010 nM.

For B14, the Kd came out at 58.9 nM.

On to B15, for which the Kd is 161 nM.

For B16, the Kd was 32 nM.

With B17, the Kd was 47.5 nM.

In the case of B18, the Kd was 44.8 nM.

Take B19: the Kd was determined as 80200 nM.

As for B20, the Kd stood at 160 nM.

For the molecule B21, the Kd amounted to 670 nM.

Regarding B22, the equilibrium dissociation constant (Kd) is 53.7 nM.

The next assay has as its target T5, soluble cynomolgus macaque PD-1 extracellular domain (cynomolgus macaque, UniProt B0LAJ3 25-170).
T5 construct: also called Cyno PD-1; cynomolgus PD-1
The assay is described as above. As for the experimental part:
as §2
Regarding B8, the Kd came to 236 nM.

For B9, the Kd was determined as 249 nM.

For the molecule B10, the Kd worked out at 15200 nM.

With B11, the Kd was determined as 565 nM.

In the case of B12, the Kd came out at 440 nM.

For B14, the Kd was determined as 369 nM.

For B15, the Kd stood at 896 nM.

As for B16, the Kd came to 199 nM.

Take B17: the Kd came out at 253 nM.

For B18, the Kd turned out to be 251 nM.

Turning to B22, the Kd came out at 318 nM.

The Kd is the free concentration of one partner at which half of the binding sites on the other are occupied at equilibrium, for simple one-to-one binding.
